From patent US20090192084A1 come the findings set out here.

The target of one assay is PLAP (human) (UniProt Q9Y263). The assay can be described thus: Flag co-IP, 293 cells, MudPIT MS.
In another assay the target is T1, VCIP135 (human) (UniProt Q96JH7).
T1 sequence (looked up): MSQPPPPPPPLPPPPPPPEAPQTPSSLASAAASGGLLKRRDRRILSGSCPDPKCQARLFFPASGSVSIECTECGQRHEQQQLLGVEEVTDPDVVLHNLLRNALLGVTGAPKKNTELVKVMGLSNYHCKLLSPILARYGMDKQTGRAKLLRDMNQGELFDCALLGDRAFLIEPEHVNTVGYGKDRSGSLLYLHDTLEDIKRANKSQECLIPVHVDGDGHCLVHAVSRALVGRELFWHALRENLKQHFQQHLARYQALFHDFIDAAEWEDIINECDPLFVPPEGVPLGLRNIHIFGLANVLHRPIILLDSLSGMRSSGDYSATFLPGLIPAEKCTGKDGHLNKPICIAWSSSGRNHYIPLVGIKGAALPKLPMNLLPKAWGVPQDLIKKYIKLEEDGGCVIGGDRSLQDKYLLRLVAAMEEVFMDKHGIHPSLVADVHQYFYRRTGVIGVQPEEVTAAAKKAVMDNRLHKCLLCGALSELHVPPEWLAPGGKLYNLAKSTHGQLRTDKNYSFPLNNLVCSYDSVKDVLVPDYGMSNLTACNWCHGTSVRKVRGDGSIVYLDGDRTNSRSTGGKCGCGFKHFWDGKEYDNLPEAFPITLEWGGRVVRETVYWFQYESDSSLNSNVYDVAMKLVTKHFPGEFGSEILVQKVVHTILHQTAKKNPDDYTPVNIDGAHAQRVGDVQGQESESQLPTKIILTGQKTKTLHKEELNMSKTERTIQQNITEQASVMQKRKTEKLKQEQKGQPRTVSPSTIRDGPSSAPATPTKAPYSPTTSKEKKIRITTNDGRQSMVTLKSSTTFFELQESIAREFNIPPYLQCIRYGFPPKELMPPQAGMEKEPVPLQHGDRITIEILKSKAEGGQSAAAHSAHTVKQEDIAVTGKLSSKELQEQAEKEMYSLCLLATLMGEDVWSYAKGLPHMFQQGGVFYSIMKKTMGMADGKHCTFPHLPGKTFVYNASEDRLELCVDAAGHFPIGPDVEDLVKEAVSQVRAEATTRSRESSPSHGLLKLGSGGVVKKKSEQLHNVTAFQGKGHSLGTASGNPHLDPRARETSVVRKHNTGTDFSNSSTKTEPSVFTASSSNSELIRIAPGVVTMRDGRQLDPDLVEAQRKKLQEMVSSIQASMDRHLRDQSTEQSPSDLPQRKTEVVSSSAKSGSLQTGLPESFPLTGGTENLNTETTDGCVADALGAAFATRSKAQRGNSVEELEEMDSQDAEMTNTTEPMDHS
The experiment in a line: Flag co-IP, 293 cells, MudPIT MS.

The target in a further assay is T2, endogenous UFD1 (human) (UniProt Q92890).
T2 sequence (looked up): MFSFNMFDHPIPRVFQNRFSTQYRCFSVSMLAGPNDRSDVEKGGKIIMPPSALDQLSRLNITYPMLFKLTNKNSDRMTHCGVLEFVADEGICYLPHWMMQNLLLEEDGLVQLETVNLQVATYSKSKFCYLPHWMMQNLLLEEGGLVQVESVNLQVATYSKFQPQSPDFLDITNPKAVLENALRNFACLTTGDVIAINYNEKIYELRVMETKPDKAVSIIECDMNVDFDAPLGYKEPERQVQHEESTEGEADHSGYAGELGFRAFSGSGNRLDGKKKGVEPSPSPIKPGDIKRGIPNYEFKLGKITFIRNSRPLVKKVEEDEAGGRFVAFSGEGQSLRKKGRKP
The experiment in a line: Flag co-IP, 293 cells, MudPIT MS.

Another assay has as its target endogenous NPL4 (human) (UniProt Q8TAT6). The assay can be described thus: Flag co-IP, 293 cells, MudPIT MS.
A further assay concerns the target endogenous p97 (human) (UniProt P55072). The assay can be described thus: Flag co-IP, 293 cells, MudPIT MS.
A further assay has as its target Cullin 2 (human) (UniProt Q13617). The experiment in a line: Flag co-IP, MudPIT MS, MG132.
Assay [1] concerns the target Ubiquitin conjugation factor E4 B, UBE4B (Ufd2ortholog) (human) (UniProt O95155). The assay can be described thus: Flag co-IP, MudPIT MS, MG132.
Assay [2] has as its target Retinoblastoma-associated factor 600, UBR4 (human) (UniProt Q5T4S7). The assay can be described thus: Flag co-IP, MudPIT MS, MG132.
The target in a further assay is gp78 (human) (UniProt Q9UKV5). The experiment in a line: Flag co-IP, MudPIT MS, MG132.
Assay [3] deals with DNA damage-binding protein I. DDB1 (human) (UniProt Q16531). The experiment in a line: Flag co-IP, MudPIT MS, MG132.
Assay [4] has as its target Ubiquitin conjugation factor E4 B, UBE4B (Ufd2ortholog) (human) (UniProt O95155). The experiment in a line: Flag co-IP, MudPIT MS, DMSO.
The target of assay [5] is Galectin-3 binding protein. LG3BP (human) (UniProt Q08380). The experiment in a line: Flag co-IP, MudPIT MS, DMSO.
The target in assay [6] is DNA damage-binding protein I. DDB1 (human) (UniProt Q16531). The assay can be described thus: Flag co-IP, MudPIT MS, DMSO.
Another assay addresses EDD1/UBR5 (human) (UniProt O95071). The experiment in a line: Flag co-IP, MudPIT MS, DMSO.

Chain of endogenous p97 (human) (P55072 2-806 limits assumed): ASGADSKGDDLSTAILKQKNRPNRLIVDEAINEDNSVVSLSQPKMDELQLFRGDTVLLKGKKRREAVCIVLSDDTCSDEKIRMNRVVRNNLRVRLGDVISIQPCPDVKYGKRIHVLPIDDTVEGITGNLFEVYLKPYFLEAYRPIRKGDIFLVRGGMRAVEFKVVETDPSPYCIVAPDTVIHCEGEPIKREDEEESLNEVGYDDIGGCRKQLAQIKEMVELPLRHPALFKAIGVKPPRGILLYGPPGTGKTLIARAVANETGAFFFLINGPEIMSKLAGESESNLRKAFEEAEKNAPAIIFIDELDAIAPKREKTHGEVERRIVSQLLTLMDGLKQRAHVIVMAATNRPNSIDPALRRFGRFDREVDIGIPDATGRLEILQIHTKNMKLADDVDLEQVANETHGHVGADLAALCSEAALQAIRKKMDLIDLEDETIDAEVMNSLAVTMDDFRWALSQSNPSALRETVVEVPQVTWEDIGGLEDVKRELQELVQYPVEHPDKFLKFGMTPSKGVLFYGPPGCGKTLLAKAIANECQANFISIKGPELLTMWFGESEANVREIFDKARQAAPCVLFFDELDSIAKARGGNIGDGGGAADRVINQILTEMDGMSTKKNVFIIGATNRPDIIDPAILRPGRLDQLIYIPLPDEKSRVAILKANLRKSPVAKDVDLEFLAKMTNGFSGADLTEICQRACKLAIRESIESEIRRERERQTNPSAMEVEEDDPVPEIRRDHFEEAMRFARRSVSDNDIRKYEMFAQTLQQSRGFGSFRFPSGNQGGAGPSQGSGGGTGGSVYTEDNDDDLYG
Chain of PLAP (human) (Q9Y263 whole entry): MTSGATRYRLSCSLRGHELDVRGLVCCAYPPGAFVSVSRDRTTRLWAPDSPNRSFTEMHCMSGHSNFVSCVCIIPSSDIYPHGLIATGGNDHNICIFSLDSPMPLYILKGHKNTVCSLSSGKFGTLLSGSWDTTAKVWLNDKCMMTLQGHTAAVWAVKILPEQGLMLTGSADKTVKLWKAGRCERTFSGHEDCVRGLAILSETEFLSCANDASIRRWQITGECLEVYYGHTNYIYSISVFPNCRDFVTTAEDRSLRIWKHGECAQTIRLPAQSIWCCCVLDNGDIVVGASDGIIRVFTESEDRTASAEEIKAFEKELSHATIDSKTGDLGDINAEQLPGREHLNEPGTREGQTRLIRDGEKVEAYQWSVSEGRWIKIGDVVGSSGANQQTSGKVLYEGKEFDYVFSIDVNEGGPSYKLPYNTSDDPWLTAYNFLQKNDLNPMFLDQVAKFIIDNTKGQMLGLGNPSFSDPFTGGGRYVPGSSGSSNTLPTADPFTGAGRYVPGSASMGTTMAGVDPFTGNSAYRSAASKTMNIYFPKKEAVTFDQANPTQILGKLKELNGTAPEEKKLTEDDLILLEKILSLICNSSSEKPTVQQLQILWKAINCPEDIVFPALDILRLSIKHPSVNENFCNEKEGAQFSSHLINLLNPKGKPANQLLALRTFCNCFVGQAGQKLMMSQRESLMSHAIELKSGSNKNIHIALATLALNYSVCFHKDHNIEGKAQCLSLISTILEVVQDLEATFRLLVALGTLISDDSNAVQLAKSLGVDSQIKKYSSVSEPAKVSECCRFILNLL
Chain of endogenous NPL4 (human) (Q8TAT6 other isoform, or with tags, fused parts or gaps limits assumed): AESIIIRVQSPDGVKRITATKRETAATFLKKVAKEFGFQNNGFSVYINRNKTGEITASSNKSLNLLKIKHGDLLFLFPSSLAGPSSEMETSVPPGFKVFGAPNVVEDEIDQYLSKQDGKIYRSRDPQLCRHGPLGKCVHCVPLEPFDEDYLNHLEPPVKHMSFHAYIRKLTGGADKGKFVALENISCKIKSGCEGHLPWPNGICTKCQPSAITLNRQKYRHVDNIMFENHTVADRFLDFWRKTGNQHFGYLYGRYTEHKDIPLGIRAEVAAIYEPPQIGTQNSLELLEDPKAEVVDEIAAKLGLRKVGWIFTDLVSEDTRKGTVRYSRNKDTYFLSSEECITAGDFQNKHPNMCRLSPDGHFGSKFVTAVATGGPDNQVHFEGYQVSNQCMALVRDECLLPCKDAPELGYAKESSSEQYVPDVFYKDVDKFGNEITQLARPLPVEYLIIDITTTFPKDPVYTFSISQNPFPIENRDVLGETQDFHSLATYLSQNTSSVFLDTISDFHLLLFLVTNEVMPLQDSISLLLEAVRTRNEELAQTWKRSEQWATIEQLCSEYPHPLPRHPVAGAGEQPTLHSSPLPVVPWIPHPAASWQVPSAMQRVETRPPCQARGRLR
Chain of gp78 (human) (Q9UKV5 whole entry): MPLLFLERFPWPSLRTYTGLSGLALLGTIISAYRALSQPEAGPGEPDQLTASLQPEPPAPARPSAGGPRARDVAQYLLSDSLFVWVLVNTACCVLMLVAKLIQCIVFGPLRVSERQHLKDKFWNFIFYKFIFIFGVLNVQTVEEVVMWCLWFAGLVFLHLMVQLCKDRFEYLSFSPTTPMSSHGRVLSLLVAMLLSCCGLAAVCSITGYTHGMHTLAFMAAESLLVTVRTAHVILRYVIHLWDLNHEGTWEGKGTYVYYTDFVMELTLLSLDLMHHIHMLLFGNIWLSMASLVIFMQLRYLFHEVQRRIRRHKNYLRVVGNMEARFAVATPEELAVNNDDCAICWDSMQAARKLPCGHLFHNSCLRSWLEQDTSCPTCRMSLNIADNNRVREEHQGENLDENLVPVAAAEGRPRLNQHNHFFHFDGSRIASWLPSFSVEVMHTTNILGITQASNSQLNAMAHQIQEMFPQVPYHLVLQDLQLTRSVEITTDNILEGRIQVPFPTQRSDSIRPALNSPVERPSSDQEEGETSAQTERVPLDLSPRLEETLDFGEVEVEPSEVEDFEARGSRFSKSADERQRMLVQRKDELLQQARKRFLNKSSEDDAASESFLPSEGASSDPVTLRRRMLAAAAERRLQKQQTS
Chain of DNA damage-binding protein I. DDB1 (human) (Q16531 2-1140 limits assumed): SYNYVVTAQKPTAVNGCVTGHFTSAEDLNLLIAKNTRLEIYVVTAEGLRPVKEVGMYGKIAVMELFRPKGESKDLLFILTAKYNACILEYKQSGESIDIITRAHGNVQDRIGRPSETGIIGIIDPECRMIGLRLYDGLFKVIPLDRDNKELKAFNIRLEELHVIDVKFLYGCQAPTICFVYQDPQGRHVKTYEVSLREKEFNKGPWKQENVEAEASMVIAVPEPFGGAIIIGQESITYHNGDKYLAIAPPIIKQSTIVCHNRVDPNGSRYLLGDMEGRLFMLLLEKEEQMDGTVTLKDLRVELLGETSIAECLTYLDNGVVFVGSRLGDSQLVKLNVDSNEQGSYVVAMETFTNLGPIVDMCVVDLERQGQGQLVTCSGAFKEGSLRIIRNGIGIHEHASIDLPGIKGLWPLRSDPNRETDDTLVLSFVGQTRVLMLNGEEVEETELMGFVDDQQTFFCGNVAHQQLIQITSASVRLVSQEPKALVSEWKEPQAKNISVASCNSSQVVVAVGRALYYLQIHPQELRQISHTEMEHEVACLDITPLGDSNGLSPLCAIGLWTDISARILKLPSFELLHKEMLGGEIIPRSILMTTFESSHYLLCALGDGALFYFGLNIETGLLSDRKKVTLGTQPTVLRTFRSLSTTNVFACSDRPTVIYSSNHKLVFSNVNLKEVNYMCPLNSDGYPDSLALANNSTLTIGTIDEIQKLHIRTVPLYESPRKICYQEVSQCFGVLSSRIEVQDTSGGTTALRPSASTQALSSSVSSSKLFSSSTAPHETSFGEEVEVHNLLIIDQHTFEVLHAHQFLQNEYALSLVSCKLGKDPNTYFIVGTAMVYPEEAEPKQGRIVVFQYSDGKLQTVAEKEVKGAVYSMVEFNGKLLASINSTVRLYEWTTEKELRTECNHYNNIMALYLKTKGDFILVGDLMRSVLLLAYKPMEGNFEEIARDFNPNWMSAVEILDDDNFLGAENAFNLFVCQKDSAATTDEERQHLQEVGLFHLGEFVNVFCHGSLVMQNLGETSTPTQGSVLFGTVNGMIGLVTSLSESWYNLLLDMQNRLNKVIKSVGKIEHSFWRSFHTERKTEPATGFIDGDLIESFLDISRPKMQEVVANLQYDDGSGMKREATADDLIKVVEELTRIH
Chain of Galectin-3 binding protein. LG3BP (human) (Q08380 19-585 limits assumed): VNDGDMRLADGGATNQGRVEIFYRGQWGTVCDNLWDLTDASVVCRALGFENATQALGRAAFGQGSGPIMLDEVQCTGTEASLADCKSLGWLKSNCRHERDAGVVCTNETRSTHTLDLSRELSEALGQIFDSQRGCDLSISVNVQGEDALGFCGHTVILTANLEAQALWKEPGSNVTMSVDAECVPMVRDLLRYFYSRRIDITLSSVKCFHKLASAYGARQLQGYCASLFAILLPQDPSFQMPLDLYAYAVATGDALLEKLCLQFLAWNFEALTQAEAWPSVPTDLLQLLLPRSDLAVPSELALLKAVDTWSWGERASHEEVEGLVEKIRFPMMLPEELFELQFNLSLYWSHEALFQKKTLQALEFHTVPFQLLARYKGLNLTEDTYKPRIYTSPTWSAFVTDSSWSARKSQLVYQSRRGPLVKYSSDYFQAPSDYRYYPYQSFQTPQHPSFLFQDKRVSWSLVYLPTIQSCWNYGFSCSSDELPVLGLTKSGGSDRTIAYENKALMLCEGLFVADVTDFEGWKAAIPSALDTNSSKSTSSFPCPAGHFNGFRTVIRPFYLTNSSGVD

In the assay with PLAP (human), Flag-ASPL (from UniProt Q9BZE9 1-553) returned a sequence count of 10, a sequence coverage of 22.8% and a spectrum count of 10.
Consider Flag-UBXD1 (from UniProt Q9BZV1 1-441), for which, in the assay with PLAP (human), the sequence count was found to be 3, the sequence coverage turned out to be 7.5% and the spectrum count is 3. Further, in the assay with VCIP135 (human), the sequence count is 2, the sequence coverage was 2.5% and the spectrum count came out at 2.
On to Flag-UBXD3 (from UniProt Q96LJ8 1-280), for which, in the assay with endogenous UFD1 (human), the sequence count came out at 3, the sequence coverage was found to be 12.2% and the spectrum count turned out to be 3. In the assay with endogenous NPL4 (human), the sequence count worked out at 7, the sequence coverage stood at 14.1% and the spectrum count is 9.
In the case of Flag-UBXD5, the sequence count was 2 in the assay with endogenous NPL4 (human), 124 in the assay with endogenous p97 (human), 6 with PLAP (human) and 20 in the assay with VCIP135 (human). In addition, the sequence coverage with endogenous NPL4 (human) amounted to 5.2%; in the assay with endogenous p97 (human), 75.5%; with PLAP (human), 11.6%; with VCIP135 (human), 27.5%. Moreover, the spectrum count with endogenous NPL4 (human) is 3; with endogenous p97 (human), 783; with PLAP (human), 6; in the assay with VCIP135 (human) it was 25.
In the assay with endogenous UFD1 (human), Flag-UBXD6 (from UniProt O00124 1-270) came in with a sequence count of 4, a sequence coverage of 19.2% and a spectrum count of 5. In the assay with endogenous NPL4 (human), the sequence count is 9, the sequence coverage came out at 16.5% and the spectrum count was determined as 16. Moreover, in the assay with VCIP135 (human), the sequence count turned out to be 2, the sequence coverage is 2.7% and the spectrum count stood at 2.
Consider Flag-p47 (from UniProt O35987 1-370), for which the abundance factor (AF) in the assay with Cullin 2 (human) was found to be 1; in assay [1] it was 1.4; in assay [2] it was 0.2; in the assay with gp78 (human), 1.7; in assay [3] it was 1; in assay [4], 1.1. In addition, the values for the abundance factor (AF) (in assay [5]; in [6]; in the assay with EDD1/UBR5 (human)) were 1.5, 0.5 and 0.2, respectively. For the same substance, the sequence count with Cullin 2 (human) amounted to 2; in [1], 5; in [2] it was 2; in the assay with gp78 (human), 3; in assay [3], 3; with PLAP (human), 27. Moreover, the sequence count in assay [4] came to 5; in assay [5] it was 3; in assay [6], 2; with EDD1/UBR5 (human) it was 2. For the same substance, the spectrum count in the assay with Cullin 2 (human) was 2; in [1], 5; in assay [2] it was 3; in the assay with gp78 (human), 3; in assay [3], 3; in the assay with PLAP (human), 38. For the same substance, the spectrum count in assay [4] turned out to be 5; in assay [5], 3; in [6], 2; with EDD1/UBR5 (human), 2. Besides, the sequence coverage with PLAP (human) was 42.9%.
